According to paper doi:10.1101/2025.07.27.667015v3 (biorxiv, 2025):

Key:
[1] = system: CSCC[C@H](N)C(=O)O; experiment: purified protein; settings: saturating PLP (5 μM), 50 mM Tris-HCl pH 8.0, 20 °C
[2] = molecular target: yMGL (Yarrowia lipolytica, UniProt Q6CB42); experiment: OpenSPR, protein immobilised on NTA chip; assay type: binding
[3] = molecular target: yMGL (Yarrowia lipolytica, UniProt Q6CB42, S333A); experiment: OpenSPR, protein immobilised on NTA chip; assay type: binding

Molecule | Km [1] | kcat [1] | Kd [2] | Kd [3]
yMGL (Yarrowia lipolytica CLIB122) | 1500 ± 10 µM | 0.06 ± 0.00 s⁻¹ |  | 
Cc1ncc(COP(=O)(O)O)c(C=O)c1O [PLP] |  |  | 33.1 µM | 942 µM
yMGL-ΔCTD (Yarrowia lipolytica CLIB122; DEL253-380) | 750 ± 10 µM | 0.04 ± 0.00 s⁻¹ |  | 
